Laboratory results taken from paper PMC5131608.

Target: Tt1219^33-236 (T. thermophilus HB8)
Experiment: SEC; size exclusion chromatography of Tt1219^33-236 alone (Supplementary Fig. 1)

stoichiometry N: 2
Substance: Tt1219^33-236 (domain or fragment)
